These results are taken from paper PMC12135937.

Experiment [1] concerns the target DIP-β isoform G (Drosophila melanogaster). Briefly: SPR; Biacore T100, CM4 chip; DIPs immobilised by amine coupling (700-900 RU), monomeric Dpr analytes in 3-fold dilution series (0.012 to 9, 27 or 81 µM); 25 °C; 10 mM Tris-HCl pH 7.2, 150 mM NaCl, 1 mM EDTA, 1 mg/mL BSA, 0.01% Tween-20; equilibrium responses fit to a 1:1 model. A general note: In SPR one partner is held on a chip, and binding of the other changes the refractive index at the surface.

Experiment [2] concerns the target DIP-β isoform C (Drosophila melanogaster). The experiment is described as above.

For orientation: Kd means the concentration at which binding is half-saturated. Low readings indicate higher affinity, high ones lower affinity.

DIP-β isoform G (Drosophila melanogaster), sequence (main, as listed by the source): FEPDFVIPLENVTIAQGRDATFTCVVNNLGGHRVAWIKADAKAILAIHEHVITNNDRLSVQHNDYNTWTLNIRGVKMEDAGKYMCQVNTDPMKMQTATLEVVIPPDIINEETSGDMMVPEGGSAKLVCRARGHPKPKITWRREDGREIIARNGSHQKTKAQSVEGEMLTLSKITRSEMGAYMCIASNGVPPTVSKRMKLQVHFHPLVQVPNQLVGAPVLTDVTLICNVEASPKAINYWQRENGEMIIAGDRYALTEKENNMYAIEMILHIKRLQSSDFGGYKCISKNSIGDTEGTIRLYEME
DIP-β isoform C (Drosophila melanogaster), sequence (main, as listed by the source): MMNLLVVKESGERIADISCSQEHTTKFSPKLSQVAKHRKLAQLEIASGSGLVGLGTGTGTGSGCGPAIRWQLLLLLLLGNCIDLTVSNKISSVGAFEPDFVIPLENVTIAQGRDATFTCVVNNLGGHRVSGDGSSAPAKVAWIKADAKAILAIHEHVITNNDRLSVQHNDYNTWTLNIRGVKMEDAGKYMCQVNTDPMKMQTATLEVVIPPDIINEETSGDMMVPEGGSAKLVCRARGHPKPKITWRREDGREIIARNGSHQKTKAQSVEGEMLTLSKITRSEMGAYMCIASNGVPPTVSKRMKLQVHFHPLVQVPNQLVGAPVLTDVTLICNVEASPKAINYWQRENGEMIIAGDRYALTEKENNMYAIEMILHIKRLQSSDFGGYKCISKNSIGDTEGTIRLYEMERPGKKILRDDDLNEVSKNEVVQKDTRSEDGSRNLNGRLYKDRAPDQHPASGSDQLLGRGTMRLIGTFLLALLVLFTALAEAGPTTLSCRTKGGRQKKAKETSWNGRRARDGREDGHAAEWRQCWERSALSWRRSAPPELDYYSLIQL

Take Dpr8 (natural protein): the Kd in experiment [1] stood at 0.789 µM; in experiment [2], 1.32 µM.

For Dpr9 (natural protein), the values for the Kd in experiment [1] and in experiment [2] were 3.41 µM and 5.97 µM, respectively.

As for Dpr11 (natural protein), the Kd in experiment [1] was 180 µM; in experiment [2] it was 106 µM.

As to Dpr16 (natural protein), the results for the Kd in experiment [1] and in experiment [2] were 60 µM and 180 µM, respectively.

Take Dpr17 (natural protein): the Kd is 58.7 µM in experiment [1] and 176 µM in experiment [2].
